This note sets out measurements from the nanobody polyreactivity screen of Harvey et al. (2022).

The series is described as follows: yeast display, Sf9 membrane polyspecificity reagent, FACS + sequencing; frameworks hold sequencing errors. The procedure, abridged:
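Polyreactivity labels are assigned by the sorting gate from which each nanobody was recovered. The gates were low and high (top ~1%), set on anti-HA fluorescence for expression and streptavidin fluorescence for reagent binding. Before sorting, galactose-induced (36–48 hours) yeast display cells were stained for 1 hour at 4 °C with 10% biotinylated, detergent-solubilized Sf9 membrane reagent.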
With “QVQLVESGGGLVQAGGSLRLSCAASGFTFSINTMGWYRQAPGKERQFVAGISRSGGSTYYADSVKWRFTISRDNAKNTVYLQMNSLKPEDTAVYYCAAGGPYWSRYEYWGQGNQVTVSS”, the “polyreactivity (PSR sort gate)” value was “high polyreactivity”.
The value for “QVQLVESGGGLVQAGGSLRLSCAASGSTFDYYAMGWYRQAPGKERELVGVISSSGGSTYYADSVKGGFTISRDNAKNTVYLQMNSLKPEDTAVYYCAALYRNYGSSYAYYYWGQGTQVTVSS” was “low polyreactivity”; that for “QVQLVESGGGLVQAGGSLRLSCAASGSIFYAYAMGWYRQAPGKEREFVAVISRGGITNYADSVKGRFTISRDNAKNTVYLQMNSLKPEDTAVYYCAAATSAWGYLRRYGYWGQGTQVTVSS” was “low polyreactivity”; that for “QVQLVESGGGLVQAGGSLRLTCAASGSIIYTNGMGWYRQAPAKERELVAAISVSGGSTYYADSVKGRFTITRDNEKNTVYLQMNSLKPEDTAVYFCNAKDWYFYRYDYWGQGTQVTVSS” was “low polyreactivity”.
Regarding “QVQLVESGGGLLQAGGSLRISCAASGSTFYYYAMGWYRQAPGKERELVAAISRGGGSTYYADSVKGRFTISRDNAKNTVYLQMNSLKPEDTAVYYCAARRVGGGFYTWRNPAYEYWGQGTQVTVSS”, the “polyreactivity (PSR sort gate)” value is on record as “high polyreactivity”.
On to “QVQHVESAGGLVQAGGSLRLSCAASGRIFYVNAMGWYRPAPGKERQLVAAIRSAVGTYYADSVKGRFTISRDNAKNTVYLQMNSLKPEDTAVYYCNADASFREYRFYLIEMDYWGQGTKVTVSS”, for which the “polyreactivity (PSR sort gate)” value is recorded as “high polyreactivity”.
As for “QVQLVESGGGLVQAGGSLRLTCASSGRIYVVNAMGWYRQAPGKEMELVADIYRSGGSTYYADSVKGRFTISRDYAKNTVYLQMNSLKPEDTAVYYCAAEDWPSSPSAPGFDYDYWGQATQVTVSS”, the “polyreactivity (PSR sort gate)” value is recorded as “low polyreactivity”.
In the case of “QDQLVESGGGLVQAGGSHRLSCAASGRIFARNAMGWYRQAPGKERELVATIRVGGGSTYYADSVKGRFTISRDNAKNTVYLQLNSLKPEDTAVYDCAVRQLYSYPGDRRGYYWGQGTQVTVSS”, the “polyreactivity (PSR sort gate)” value was “low polyreactivity”.
For “QVQLVESGGGLVQAGGSLRLSCAASGLTFSYYAMGWYRQAPGKERELVAASSWSGGSTYYADSVKGRFTISRDNAKNTVYLQMNSLKPDDTAVYYCAKYPNRHYWYDYWGQGTQVTVSS”, the “polyreactivity (PSR sort gate)” value is listed as “low polyreactivity”.
As to “QVQLVESGRGLVQAGVSLRLSCADSGSTFDYNAMGCYRQATGKERELVPVNRSGGTTYYADSVKGRFTISRDNANNTVYLQMNSLKPEDTAVYYCAAAFQRRAGSYGGSRRYGYWGQVTQVTVSS”, the “polyreactivity (PSR sort gate)” value is reported as “high polyreactivity”.
With “QVQLVESGGGLVQAGGSLRLSCAASGITFPFYAMGWYRQAPGKERELVAGITSGGSTYYADSVKGRFTISRDNAKNTVYLQMNSLKPEDTAVYYCAAPFYRQSLIEYDFWGQGTQVTVSS”, the “polyreactivity (PSR sort gate)” value is recorded as “high polyreactivity”.
For the sequence “QVQLVESGGGLVQAGGSLRLSCAASGSIFGYYAMGWYRQAPGKERELVAAITWNADGTYYADSVKGRFTISRDNAKNTVYLQMNSLKPEDTAVYYCAADQYYQDWGGGYDYWGQGTQVTVSS”, the “polyreactivity (PSR sort gate)” value is given as “low polyreactivity”.
As for “QVQLVESGGGLVQAGGSLRLSCAASGRIFFKYAMGWYRQAPGKERELVAAISSSGGRTSYADSVKGRFTISRDNAKNTVYLQMNSLKPEDTAVYYCNVKPSARGSPLYDYWGQGTQVTVSS”, the “polyreactivity (PSR sort gate)” value is “high polyreactivity”.
In the case of “QVQLVESGGGLVQAGGSLRLSCAASGFTFYRYTMGWYRQAPGKERELVAVISSGGRTNYADSVKGRFTISRDNAKNTVYLQMNSLKPEDTAVYYCATRYPGYRDGYDYWGQGTQVSVSS”, the “polyreactivity (PSR sort gate)” value is on record as “high polyreactivity”.
In the case of “QVQLVESGGGLVQAGGSLSLSFAASGRTFARYAMGWYRQAPGKEREFVAGINWSGGGTYYADSVKGRFTISRDNAKNTVYLQMNSLKTEDTAVYYCAAVPTNRYGYWGQGTQVTVSS” it was “high polyreactivity”.
As to “QVQLVESGGGLVQAGGSLRLSCAASGSTFYRNAMGWYRQAPGKERELVAGISRRGGSTYYADSVKGRFTISRDNAKNSVYLQMNSLKPEDTAVYYCAADVRSGGVAYGYGYWGQGTQVTVSS”, the “polyreactivity (PSR sort gate)” value was “high polyreactivity”.
As to “QVQLVESGGGLVQAGGSLRLSCAASGRIFYDNTMGWYRQAPGKERELVAVISWSTGGTYADSVKGRFTISRDNAKNTVYLQMNSLKPEDTAVYYCATPLGYGPDLDYWGQGTQVTVSS”, the “polyreactivity (PSR sort gate)” value is “low polyreactivity”.
Consider “QVQLVESGGGLVLAGGSLRLSCAASGFIFARYAMGWYRQAPGKERELVAAISRGGSTYYADSVKGRFTISRDNAKNTVYFQMHSLKPEDTAVYYCNKRQLPNARGSSTYEYWGQGTQVTVSS”, for which the “polyreactivity (PSR sort gate)” value is “high polyreactivity”.
For the sequence “QVQLVESGGGLVQAGGSLRLSCAASGRIFSYYTMGWYRQEPRKERELVATITSGVNTNYADSVKGRFTISRDNAKNTVYLQMNSLKPEDTAVFYCIARGTAERDYWGQGTQVTVSS”, the “polyreactivity (PSR sort gate)” value is given as “high polyreactivity”.
In the case of “QVQLVESGGGLVQAGGSLRLSCAASGSIFWYYVMGWYRQAPGKERELVAAITISGAGTYYADSVKGRFTISRDNAKNTVYLQMNSLKPEDTAVYYCAARLLGHFYPFFLQGLSGFDYWGQGTQVTVSS”, the “polyreactivity (PSR sort gate)” value is “low polyreactivity”.
Turning to “HVQLVESGGGLVQAGGSLRLSCAASGGISIDNVMGWYRQATGKERELVAAISKSGGRTFYADSVKGRFTISRDNAKNTVYLQMNSLKPEDTAVYYCAKLYISKPYWYEHEYWGQGTQVTVSS”, the “polyreactivity (PSR sort gate)” value is on record as “high polyreactivity”.
For “QVQLVESGGGLVQAGGSLRLSCPASGITFVPNAMGWYRQAPGKERELVARIDNGVSTNYADSVKGRFTISRDNAKNTVYLQMNSLKPEDTAVYYCAKDGYWGDWDLDYWGQGTQVTVSS”, the “polyreactivity (PSR sort gate)” value is reported as “low polyreactivity”.
In the case of “QVQLVESGGVLVQAGGSLRLSCAASGSIFKRNVMGWYRQAPGKERELVAAITWSGASTYYADSVKGRFTISRDNAKNTVYLQMNSLKPEDTAVYYCAARGPSRRRDGSDYWGQGTQVTVSS”, the “polyreactivity (PSR sort gate)” value is “high polyreactivity”.
Regarding “QVQLVESGGGIVQAGGSLRLSCAASGYIFKYYAMGWYRQAPGKERELVAAITGGVSTNYADSVKGRFTISRDNAKNTVYLQMNSLKPEDTAVYYCAAAITPSDTGSEYDYWGQGTQVTVSS”, the “polyreactivity (PSR sort gate)” value was “low polyreactivity”.
Turning to “QVQLQESGGGLVQAGGSLRMSFAASGNIFDADIMGWYRPAPGKEPELVASITDGRRTNYADSVKGRYTIRRDSEKNTVYLQMNSLKPEDTAVYYCAAIAYPVVPTFVDFDSDYFHWGQGTHVTVSS”, the “polyreactivity (PSR sort gate)” value is reported as “high polyreactivity”.
As for “QVQLVESGGGLVQAGGSLRLSCAASGNTFSAYAMGWYRQAPGKERELVAAISSRGGSTYYADSVKGRFTISRDNAKNTVYLQMNSLKPEDTAVYYCAAGWFGTSYRYRSSFDYWGQGTQVTVSS”, the “polyreactivity (PSR sort gate)” value was “high polyreactivity”.
With “QVQLVESGGGLVQAGGSLRLSCAASGIILYYYAMGRYRPAPGKERELVASISRGDSTNYADSVKGRFTISRDNAKNTVYLQMNSLIPEDTAVYCNKDYLPSLYRGFDYWGQGTQVTVSS”, the “polyreactivity (PSR sort gate)” value is “low polyreactivity”.
As for “QVQLVESGGGLVQAGGSLRLSCAASGSTFVDNDMGWYRQAPGKERELVAAAITARGGSTYYADSVKGRFTISRDNAKNTVYLQMNSLKPEDTAVYYCAAGRPGELDYWGQGTQVTVSS”, the “polyreactivity (PSR sort gate)” value was “low polyreactivity”.
For the sequence “QVQLVESGGGLVQAGGSLRLICADSGLIFRWYAMGWYRQAPGKERELVAAISRRGGTTNYADSVKGRFTISRDNAKNTVYLQMNSLKPEDTAVYYCAVSGGFYWGQGTQVTVSS”, the “polyreactivity (PSR sort gate)” value was “high polyreactivity”.
As for “QVQLVESGGGLVQAGGSLRLSCAASGRILDRYAMGWYRQAPGKERELVAVITDRGGNTYYADSVKGRFTISRDNAKNTVYLQMNSLKPEDTAVYYCAVYAYWRFRTYYYWGQGTQVTVSS”, the “polyreactivity (PSR sort gate)” value is given as “high polyreactivity”.
On to “QVQLVESGGGLVQAGGSLRLSCAASGSTFFPNGMGWYRQAPGKERELVAAITQDGGSTYYADSVKGRFTISRDNAKNTVYLQMNSLKPEDTAVYYCNADYFVWYIGRVFSRYGYWGQGTQVTVSS”, for which the “polyreactivity (PSR sort gate)” value is reported as “low polyreactivity”.
With “QVQLEESGGGLVQAGGSLRLSSAASGFTFAFYAMGWYRQAPGKERELVAAISRRGGSTTYADSVKGRFTISRDNAKNTVYLQMNSLKPEDTAVYYCNAVSTRNPGPDYYYWGQGTQVNVSS”, the “polyreactivity (PSR sort gate)” value is “high polyreactivity”.
Turning to “QVQLVESGGGLVQAGGSLRLSCAASGSTFYAKAMGWYRQAPGKERELVATINRRGNTYYADSVKGRFTISRDNAKNTVYLQMNSLKPEDTAVYYCAADYRRYGSYDYWGQGTQVTVSS”, the “polyreactivity (PSR sort gate)” value is listed as “low polyreactivity”.
Regarding “QVQLVESGGGLVQAGGSLRLSCASSGFTYGTNAMVWYRQAPGKERELVAAISSRGGSTYYADSVKGRFTISRDNAKNTVYLLMNSLKPEDTAVYYCARRVARRQHEYGYWGQGTQVTVSS”, the “polyreactivity (PSR sort gate)” value is on record as “high polyreactivity”.
On to “QVQLVESGGGLVQAGGSLRLSCAASGRTFENYVMGWYRQAPGKERELVPAITVSGGSTYYADSVKGRFTISRDIAKNTVYLQMNSLKPEDTAVYYCAADPNVLFSQKYYEPNDYWGQGTQVTVSS”, for which the “polyreactivity (PSR sort gate)” value is listed as “low polyreactivity”.
With “QVQLLESGGGLVQAGGSLRLSCAASGLTFNTYAMGWYIQAPGKERELVAAISRGGGSTYYADSVKGRFTISRDNAKNTVYLQMNSLKPEDTAVYYCNAEKRASYLLYDYWGQGTQVTVSS”, the “polyreactivity (PSR sort gate)” value is given as “high polyreactivity”.
As for “QVQLVESGGGLVQAGGSLRLSCAASGRTLKYNVMGWYRQAPGKERELVASITSRGGSTRYADSVKGRFTISRDNAKNTVYLLMNSLKPEDTAVYYCAARYTTARSSYDYWGQGTQVTVSS”, the “polyreactivity (PSR sort gate)” value is listed as “high polyreactivity”.
“QVQLVESGGGLVQAGGSLRLSCAASGSTSRSYTMGWYRQAPGKEREFVASIRWSGGRTYNADSVKGRFTISRDNAKNTVYLQMNSLKPEDTAVYYCNADYYRLRFRLGWYDYWGQGTQVTVSS”: the “polyreactivity (PSR sort gate)” value is reported as “high polyreactivity”.
Take “QVQLVESGGGLVQAGGSLRLSCAASGRTFDDYAMGWYIQAPGKERELVAGIRWSVGNTDYADSVKGRFTISRDNAKNTVYLQMNSLKPEDTAVYYCNARPFLTVLYLFYGNNYDYWGQGTQVTVSS”: the “polyreactivity (PSR sort gate)” value is given as “low polyreactivity”.
On to “QVQLVESGGGLVQAGGSLRLSCAASGSTFVWYAMGWYRQAPGKEREFVAAITNSGGSTYYADSVKGRFTISRDNAKNTVYLQMNSLKPEDTAVDYCAKDRYYYRGAYHEYNYWGQGTQVTVSS”, for which the “polyreactivity (PSR sort gate)” value is on record as “low polyreactivity”.
